According to paper PMC12057046, “Elucidation of short linear motif-based interactions of the MIT and rhodanese domains of the ubiquitin-specific protease 8” (Biology Direct, 2025):
Each block holds one binder with its values, some of them ahead of it. Ends that are not written are not given here. * marks the point of attachment. FITC = O=C1OC2(c3ccc(O)cc3Oc3cc(O)ccc32)c2ccc(NC(=S)*)cc21

How the values were obtained:
Settings in all cases: both partners purified
[1] = target: T1, GST-tagged USP8 MIT domain (1-142) (human, UniProt P40818 1-142); assay: peptide or protein array; SPOT array, cellulose-bound peptides; GST-tagged MIT domain 100 µM in 5% skim milk in TBST overnight at 4 °C; detected with HRP-conjugated anti-GST antibody
T1 construct: Ubiquitin carboxyl-terminal hydrolase 8 (USP8), human, MIT domain, residues 1-142; pETM33 vector, synthesized by GenScript; source: E. coli BL21-Gold (DE3), purified (glutathione sepharose, eluted with reduced glutathione)
T1 sequence (looked up): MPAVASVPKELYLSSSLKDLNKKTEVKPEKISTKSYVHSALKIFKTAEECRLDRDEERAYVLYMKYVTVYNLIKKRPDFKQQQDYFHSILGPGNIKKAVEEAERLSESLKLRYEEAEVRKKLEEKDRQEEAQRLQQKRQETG

[2] = target: T2, GST-tagged USP8 rhodanese domain (174-317) (human, UniProt P40818 174-317); assay: peptide or protein array; SPOT array, cellulose-bound peptides; GST-tagged Rhodanese domain 150 µM in 5% skim milk in TBST overnight at 4 °C; detected with HRP-conjugated anti-GST antibody
T2 construct: Ubiquitin carboxyl-terminal hydrolase 8 (USP8), human, rhodanese domain, residues 174-317; pETM33 vector, synthesized by GenScript; also called Rhod domain; source: E. coli BL21-Gold (DE3), purified (glutathione sepharose, eluted with reduced glutathione)
T2 sequence (looked up): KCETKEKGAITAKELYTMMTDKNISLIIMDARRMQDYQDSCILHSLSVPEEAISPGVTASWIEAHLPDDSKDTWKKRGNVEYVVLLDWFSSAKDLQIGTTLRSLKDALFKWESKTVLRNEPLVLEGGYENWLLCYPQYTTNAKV

[3] = target: T3, USP8 Rhod (174–317) (human, UniProt P40818 174-317); assay: fluorescence polarisation; direct binding: constant concentration of FITC-labeled peptide, increasing concentration of the protein; 50 mM sodium phosphate buffer pH 7.4, 1 mM DTT; KD from a fit to a quadratic equation
T3 construct: Ubiquitin carboxyl-terminal hydrolase 8 (USP8), human, UniProt P40818, rhodanese domain, residues 174-317; Construct in the pETM33 vector, synthesized by GenScript; also called USP8_Rhodanese; USP8 rhodanese domain; source: E. coli BL21-Gold (DE3), purified (GSH sepharose)
T3 sequence (looked up): T2 sequence (looked up)

[4] = target: T4, USP8 rhodanese domain (174-317), GST tag cleaved (human, UniProt P40818 174-317); assay: fluorescence polarisation; competitive: 1.5 µM protein preincubated with 10 nM FITC-labeled peptide, displaced by increasing concentration of unlabeled peptide; 50 mM sodium phosphate pH 7.4, 1 mM DTT
T4 construct: Ubiquitin carboxyl-terminal hydrolase 8 (USP8), human, rhodanese domain, residues 174-317; also called Rhod domain; source: E. coli BL21-Gold (DE3), purified (glutathione sepharose, GST cleaved on beads with HRV 3C protease)
T4 sequence (looked up): T2 sequence (looked up)

binding result [1]: binds
B1: DBP 116-131 peptide, cellulose-bound (SPOT array) (peptide)
peptide: YVDLDAFLLEHGLPPS
notes: also called positive control; source: array of predicted peptides: JPT Peptide Technologies

binding result [1]: binds
B3: DNAJB6 118-130 peptide, cellulose-bound (SPOT array) (peptide, UniProt O75190 118-130, looked up)
peptide: PFEDFFGNRRGPR
notes: DnaJ homolog subfamily B member 6 (DNAJB6), residues 118-130; holds a partial DFx{2,3}R motif; also called DnaJ homolog subfamily B member 6; source: alanine scan: INTAVIS

binding result [2]: binds
B4: Tumour protein 63 608-622 peptide, cellulose-bound (SPOT array) (peptide, UniProt Q9H3D4 608-622, looked up)
peptide: HEFSSPSHLLRTPSS
notes: holds an SSPxxL[LM] motif; source: alanine scan: INTAVIS

binding result [2]: binds
B5: Keratin-85 41-55 peptide, cellulose-bound (SPOT array) (peptide, UniProt P78386 41-55, looked up)
peptide: GVSCYRGLTGFGSRS
notes: Keratin-85 (KRT85), residues 41-55; holds an Rx[LI]xG motif; also called KRT85_(41 − 55); source: bought: JPT Peptide Technologies, cellulose membrane

Kd [4]: 10 ± 2 µM
B7: KIAA1614 568-583 peptide, synthetic (peptide)
peptide: GMERVLGGLSSPLRLL
notes: also called positive control; source: JPT Peptide Technologies; free, unlabelled for fluorescence polarisation (GeneCust, >95% purity)

Continued, binder first:

B2: Cadherin-1 863-877 peptide, cellulose-bound (SPOT array) (peptide, UniProt P12830 863-877, looked up)
peptide: NEWGNRFKKLADMYG
notes: cadherin-1 (CDH1), residues 863-877; holds an RFxxL motif; also called CDH1_(863 − 877); source: alanine scan: INTAVIS
binding result [1]: binds

B6: FITC-TET3 1705-1720 peptide (Methylcytosine dioxygenase TET3) (peptide)
peptide: {FITC}-GLALWEAKMKQLAERA
notes: also called probe peptide; source: synthetic peptide, bought: GeneCust (France), > 95% purity
Kd [3]: 0.7 µM

B8: TET3 1705-1720 peptide, unlabelled, synthetic (peptide)
peptide: GLALWEAKMKQLAERA
notes: source: synthetic peptide (GeneCust, >95% purity)
Kd [4]: 33 ± 9 µM
